Assay results taken from article PMC4569481.

Biological target: Dihydrolipoamide dehydrogenase (Lpd) of P. aeruginosa, recombinant full length (Lpd^1-478) (P. aeruginosa strain PAO1) (UniProt Q9I3D1)
Assay: ELISA; Lpd (5 μg/ml) coated on microtiter plates overnight at 4°C; vitronectin (0.01–12.5 μg/ml), recombinant vitronectin constructs (5 μg/ml) or clusterin (0.01–20 μg/ml) added 1 h at RT; detected with antibodies, absorbance at 492 nm

Chain of Dihydrolipoamide dehydrogenase (Lpd) of P. aeruginosa, recombinant full length (Lpd^1-478) (P. aeruginosa strain PAO1) (Q9I3D1 whole entry): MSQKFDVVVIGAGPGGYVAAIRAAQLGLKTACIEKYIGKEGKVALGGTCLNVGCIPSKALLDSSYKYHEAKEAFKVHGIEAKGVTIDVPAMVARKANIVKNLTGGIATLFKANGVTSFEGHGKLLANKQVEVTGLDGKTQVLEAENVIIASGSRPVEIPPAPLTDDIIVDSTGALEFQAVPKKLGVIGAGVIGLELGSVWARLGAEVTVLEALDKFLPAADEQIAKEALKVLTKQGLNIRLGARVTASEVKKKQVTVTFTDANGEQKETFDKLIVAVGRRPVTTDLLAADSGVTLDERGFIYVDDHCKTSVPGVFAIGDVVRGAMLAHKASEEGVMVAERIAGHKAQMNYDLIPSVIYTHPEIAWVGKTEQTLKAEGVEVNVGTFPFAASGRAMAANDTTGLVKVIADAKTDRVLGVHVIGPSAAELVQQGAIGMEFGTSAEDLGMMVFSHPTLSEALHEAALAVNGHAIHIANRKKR

How did the percent reduction of binding (ELISA signal; reference not named) turn out when vitronectin^80-353 (domain or fragment) was run?
The percent reduction of binding (ELISA signal; reference not named) was 70%.
